According to US20080063657A1 (VAXINNATE, published 2008):

Target: TLR5 (UniProt O60602 21-858)
Experiment: cell-based or functional assay

Sequence of TLR5 (O60602 21-858 limits assumed): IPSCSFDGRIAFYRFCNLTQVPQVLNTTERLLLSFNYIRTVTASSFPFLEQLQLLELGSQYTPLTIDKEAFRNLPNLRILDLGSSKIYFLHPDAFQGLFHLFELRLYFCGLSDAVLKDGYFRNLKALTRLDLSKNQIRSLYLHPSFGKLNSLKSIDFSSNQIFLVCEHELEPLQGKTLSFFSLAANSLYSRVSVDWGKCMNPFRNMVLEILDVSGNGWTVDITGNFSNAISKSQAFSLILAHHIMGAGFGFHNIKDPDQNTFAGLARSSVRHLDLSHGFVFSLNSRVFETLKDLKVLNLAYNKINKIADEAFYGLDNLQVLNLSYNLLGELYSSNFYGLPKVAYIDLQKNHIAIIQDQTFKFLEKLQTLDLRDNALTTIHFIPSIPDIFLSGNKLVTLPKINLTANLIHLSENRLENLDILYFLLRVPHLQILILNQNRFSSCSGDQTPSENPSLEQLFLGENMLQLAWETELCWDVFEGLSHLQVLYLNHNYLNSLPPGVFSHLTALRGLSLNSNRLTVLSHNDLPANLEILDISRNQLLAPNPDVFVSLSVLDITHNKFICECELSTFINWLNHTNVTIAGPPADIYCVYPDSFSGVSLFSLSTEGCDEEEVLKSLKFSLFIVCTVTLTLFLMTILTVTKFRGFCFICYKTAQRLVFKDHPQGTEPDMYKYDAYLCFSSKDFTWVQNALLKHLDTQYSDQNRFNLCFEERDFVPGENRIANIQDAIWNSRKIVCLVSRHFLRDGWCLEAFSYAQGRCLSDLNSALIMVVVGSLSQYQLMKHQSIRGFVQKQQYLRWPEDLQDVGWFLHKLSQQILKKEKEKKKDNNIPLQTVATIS

B1: STF2.EIII+ fusion protein (other)
chain: MAQVINTNSLSLLTQNNLNKSQSALGTAIERLSSGLRINSAKDDAAGQAIANRFTANIKGLTQASRNANDGISIAQTTEGALNEINNNLQRVRELAVQSANSTNSQSDLDSIQAEITQRLNEIDRVSGQTQFNGVKVLAQDNTLTIQVGANDGETIDIDLKQINSQTLGLDSLNVQKAYDVKDTAVTTKAYANNGTTLDVSGLDDAAIKAATGGTNGTASVTGGAVKFDADNNKYFVTIGGFTGADAAKNGDYEVNVATDGTVTLAAGATKTTMPAGATTKTEVQELKDTPAVVSADAKNALIAGGVDATDANGAELVKMSYTDKNGKTIEGGYALKAGDKYYAADYDEATGAIKAKTTSYTAADGTTKTAANQLGGVDGKTEVVTIDGKTYNASKAAGHDFKAQPELAEAAAKTTENPLQKIDAALAQVDALRSDLGAVQNRFNSAITNLGNTVNNLSEARSRIEDSDYATEVSNMSRAQILQQAGTSVLAQANQVPQNVLSLLRKGNSKLEGQLEFPRTSMEKLQLKGTTYGVCSKAFKFLGTPADTGHGTVVLELQYTGTDGPCKVPISSVASLNDLTPVGRLVTVNPFVSVATANAKVLIELEPPFGDSYIVVGRGEQQINHHWHKSGSSIGK
In the case of B1, the “TLR-5 EC50 (IL-8 in supernatant of HEK293 cells, ELISA), batch 052” value is reported as over 5 µg/mL, the “TLR-5 EC50 (IL-8 in supernatant of HEK293 cells, ELISA), batch 054” value is reported as 1.2 µg/mL and the “TLR-5 EC50 (IL-8 in supernatant of HEK293 cells, ELISA), batch 057” value is reported as 0.198 µg/mL.
